# Results reported in PMC7703596.
# How the values were obtained:
# [1] = test system: COC(=O)c1ccccc1-c1c2ccc(=N)cc-2oc2cc(N)ccc12; assay: efflux kinetics in HeLa cells, flow cytometry; format: cell-based, Homo sapiens; conditions: ATP
# [2] = test system: COC(=O)c1ccccc1-c1c2ccc(=N)cc-2oc2cc(N)ccc12; assay: uptake kinetics in HeLa cells, flow cytometry; format: cell-based, Homo sapiens; conditions: ATP
Substance,Km [1] [µM],Km [2] [µM]
P-glycoprotein (P-gp) (Homo sapiens),2.98 ± 0.51,
P-glycoprotein (P-gp) 14A mutant (Homo sapiens; F336A/F343A/L332A/L975A/M986A/S979A/V331A/V334A/V338A/V345A/V974A/V977A/V981A/V982A),,1.69 ± 0.12
